Results from US9994628B2, “Peptides and combination of peptides for use in immunotherapy against various tumors” (IMMATICS BIOTECHNOLOGIES GMBH, priority 2015, dated 2018).

Assays:
CD8+ T cells = assay: In vitro T-cell priming assay with aAPCs loaded with peptide/MHC complexes and anti-CD28 antibody, pMHC multimer readout; format: cell-based, human; conditions: for donors (in vitro immunogenicity): positive donors; for donors (in vitro immunogenicity) / wells (in vitro immunogenicity): healthy HLA-A*02 donors, three stimulation cycles; for wells (in vitro immunogenicity): positive wells; for Wells positive [%]: percentage of positive wells among evaluable, HLA-A*02 restricted peptides
From the text: In order to obtain information regarding the immunogenicity of the TUMAPs of the present invention, the inventors performed investigations using an in vitro T-cell priming assay based on repeated stimulations of CD8+ T cells with artificial antigen presenting cells (aAPCs) loaded with peptide/MHC complexes and anti-CD28 antibody.
In order to perform in vitro stimulations by artificial antigen presenting cells loaded with peptide-MHC complex (pMHC) and anti-CD28 antibody, the inventors first isolated CD8+ T cells from fresh HLA-A*02 leukapheresis products via positive selection using CD8 microbeads (Miltenyi Biotec, Bergisch-Gladbach, Germany) of healthy donors obtained from the University clinics Mannheim, Germany, after informed consent. PBMCs and isolated CD8+ lymphocytes were incubated in T-cell medium (TCM) until use consisting of RPMI-Glutamax (Invitrogen, Karlsruhe, Germany) supplemented with 10% heat inactivated human AB serum (PAN-Biotech, Aidenbach, Germany), 100 U/ml Penicillin/100 μg/ml Streptomycin (Cambrex, Cologne, Germany), 1 mM sodium pyruvate (CC Pro, Oberdorla, Germany), 20 μg/ml Gentamycin (Cambrex). 2.5 ng/ml IL-7 (PromoCell, Heidelberg, Germany) and 10 U/ml IL-2 (Novartis Pharma, Nümberg, Germany) were also added to the TCM at this step. Generation of pMHC/anti-CD28 coated beads, T-cell stimulations and readout was performed in a highly defined in vitro system using four different pMHC molecules per stimulation condition and 8 different pMHC molecules per readout condition.
The purified co-stimulatory mouse IgG2a anti human CD28 Ab 9.3 (Jung et al., 1987) was chemically biotinylated using Sulfo-N-hydroxysuccinimidobiotin as recommended by the manufacturer (Perbio, Bonn, Germany). Beads used were 5.6 μm diameter streptavidin coated polystyrene particles (Bangs Laboratories, Illinois, USA).
pMHC used for positive and negative control stimulations were A*0201/MLA-001 (peptide […] (SEQ ID NO. 289) from modified Melan-A/MART-1) and A*0201/DDX5-001 ([…] from DDX5, SEQ ID NO. 290), respectively.
800.000 beads/200 μl were coated in 96-well plates in the presence of 4×12.5 ng different biotin-pMHC, washed and 600 ng biotin anti-CD28 were added subsequently in a volume of 200 μl. Stimulations were initiated in 96-well plates by co-incubating […] CD8+ T cells with 2×10^5 washed coated beads in 200 μl TCM supplemented with 5 ng/ml IL-12 (PromoCell) for 3 days at 37° C. Half of the medium was then exchanged by fresh TCM supplemented with 80 U/ml IL-2 and incubating was continued for 4 days at 37° C. This stimulation cycle was performed for a total of three times. For the pMHC multimer readout using 8 different pMHC molecules per condition, a two-dimensional combinatorial coding approach was used as previously described (Andersen et al., 2012) with minor modifications encompassing coupling to 5 different fluorochromes. Finally, multimeric analyses were performed by staining the cells with Live/dead near IR dye (Invitrogen, Karlsruhe, Germany), CD8-FITC antibody clone SK1 (BD, Heidelberg, Germany) and fluorescent pMHC multimers. For analysis, a BD LSRII SORP cytometer equipped with appropriate lasers and filters was used. Peptide specific cells were calculated as percentage of total CD8+ cells. Evaluation of multimeric analysis was done using the FlowJo software (Tree Star, Oregon, USA). In vitro priming of specific multimer+ CD8+ lymphocytes was detected by comparing to negative control stimulations.

HLA-A*02:01 = HLA-A*02:01 (Homo sapiens, UniProt P04439, D140Y/D185E/D98H/E176V/E277Q/G131W/G231S/I119V/I121R/I166T/I218V/L300P/L318F/N151K/N90K/P208A/P217A/Q86G/Q94H/R138H/R169H/T345S); assay: MHC binding assay: UV-ligand exchange and β2m ELISA (peptide exchange yield, Table 7); conditions: binding of HLA-class I restricted peptides to HLA-A*02:01, UV-ligand exchange
How it was run: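 Peptide-MHC complexes made by UV-mediated exchange of a cleavable ligand for test peptide; exchange yield measured by ELISA detecting β2m of stabilized complexes captured on streptavidin, using refolded HLA-A*02:01/MLA-001 monomer standards (15-500 ng/ml). Samples diluted 100-fold; HRP anti-β2m, TMB, absorbance 450 nm.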

Substance	Peptide exchange (MHC class I binding score, peptide exchange yield) (HLA-A*02:01)	other results
287 (KIQEILTQV; listed as Homo sapiens) [compound 287]	–	donors (in vitro immunogenicity) (CD8+ T cells): +++ (50%-69% = +++); wells (in vitro immunogenicity) (CD8+ T cells): + (<20% = +)
34 (TLNTLDINL; listed as Homo sapiens) [compound 34]	+++ (≥50% = +++)	Wells positive [%] (CD8+ T cells): ++++ (>=70% = ++++)
288 (SLYKGLLSV; listed as Homo sapiens) [compound 288]	–	donors (in vitro immunogenicity) (CD8+ T cells): ++++ (>=70% = ++++); wells (in vitro immunogenicity) (CD8+ T cells): ++ (21%-49% = ++)
234 (VLLNEILEQV; listed as Homo sapiens) [compound 234]	++++ (≥75% = ++++)	–
37 (QIVELIEKI; listed as Homo sapiens) [compound 37]	++ (≥20% = ++)	–
55 (HLFDKIIKI; listed as Homo sapiens) [compound 55]	+++ (≥50% = +++)	–
282 (SLYALHVKA; listed as Homo sapiens) [compound 282]	++ (≥20% = ++)	–
145 (ALEEKLENV; listed as Homo sapiens) [compound 145]	+++ (≥50% = +++)	–
61 (ALYPKEITL; listed as Homo sapiens) [compound 61]	+++ (≥50% = +++)	–
72 (VLSTRVTNV; listed as Homo sapiens) [compound 72]	++ (≥20% = ++)	–
206 (GLDAFRIFL; listed as Homo sapiens) [compound 206]	++++ (≥75% = ++++)	–
110 (QIQGQVSEV; listed as Homo sapiens) [compound 110]	++ (≥20% = ++)	–
5 (GLVDIMVHL; listed as Homo sapiens) [compound 5]	+++ (≥50% = +++)	–
38 (VLQQESNFL; listed as Homo sapiens) [compound 38]	++ (≥20% = ++)	–
138 (GIINKLVTV; listed as Homo sapiens) [compound 138]	++ (≥20% = ++)	–
155 (TLDSYLKAV; listed as Homo sapiens) [compound 155]	++ (≥20% = ++)	–
284 (KLMDPGSLPPL; listed as Homo sapiens) [compound 284]	++ (≥20% = ++)	–
133 (FLDGRPLTL; listed as Homo sapiens) [compound 133]	++ (≥20% = ++)	–

Continued, in another order:

Peptide exchange (MHC class I binding score, peptide exchange yield) (HLA-A*02:01)	Substance	other results
+++ (≥50% = +++)	39 (YLEDGFAYV; listed as Homo sapiens) [compound 39]	Wells positive [%] (CD8+ T cells): ++++ (>=70% = ++++)
++ (≥20% = ++)	149 (NMADGQLHQV; listed as Homo sapiens) [compound 149]	–
+++ (≥50% = +++)	251 (LLWGNLPEI; listed as Homo sapiens) [compound 251]	–
+++ (≥50% = +++)	165 (SLLDYEVSI; listed as Homo sapiens) [compound 165]	–
+++ (≥50% = +++)	94 (YLDEVAFML; listed as Homo sapiens) [compound 94]	–
+++ (≥50% = +++)	257 (KLIDHQGLYL; listed as Homo sapiens) [compound 257]	–
+++ (≥50% = +++)	144 (FLISQTPLL; listed as Homo sapiens) [compound 144]	–
++ (≥20% = ++)	185 (TLYQGLPAEV; listed as Homo sapiens) [compound 185]	–
+++ (≥50% = +++)	168 (VIFEGEPMYL; listed as Homo sapiens) [compound 168]	–
++++ (≥75% = ++++)	178 (SLVSWQLLL; listed as Homo sapiens) [compound 178]	–
+++ (≥50% = +++)	76 (FTAEFLEKV; listed as Homo sapiens) [compound 76]	–
+++ (≥50% = +++)	283 (ALSELLQQV; listed as Homo sapiens) [compound 283]	–
++ (≥20% = ++)	85 (KLLDKPEQFL; listed as Homo sapiens) [compound 85]	–
+++ (≥50% = +++)	143 (MLWESIMRV; listed as Homo sapiens) [compound 143]	–
+++ (≥50% = +++)	231 (LLDDIFIRL; listed as Homo sapiens) [compound 231]	–
++ (≥20% = ++)	170 (FIAAVVEKV; listed as Homo sapiens) [compound 170]	–
++ (≥20% = ++)	188 (VLGEEQEGV; listed as Homo sapiens) [compound 188]	–
++ (≥20% = ++)	199 (SVADLAHVL; listed as Homo sapiens) [compound 199]	–
+++ (≥50% = +++)	24 (KVWSDVTPL; listed as Homo sapiens) [compound 24]	–
++ (≥20% = ++)	198 (ILTNKVVSV; listed as Homo sapiens) [compound 198]	–
